Where a chain is given by its changes, count along the chain named.

Here are results for one molecule from US20150329626A1 (Eli Lilly, published 2015).

One assay concerns the target T1, cyno Ang2 (cynomolgus monkey, UniProt A0A2K5VNX6 19-496).
T1 construct: also called cynomolgus monkey Ang2
T1 sequence: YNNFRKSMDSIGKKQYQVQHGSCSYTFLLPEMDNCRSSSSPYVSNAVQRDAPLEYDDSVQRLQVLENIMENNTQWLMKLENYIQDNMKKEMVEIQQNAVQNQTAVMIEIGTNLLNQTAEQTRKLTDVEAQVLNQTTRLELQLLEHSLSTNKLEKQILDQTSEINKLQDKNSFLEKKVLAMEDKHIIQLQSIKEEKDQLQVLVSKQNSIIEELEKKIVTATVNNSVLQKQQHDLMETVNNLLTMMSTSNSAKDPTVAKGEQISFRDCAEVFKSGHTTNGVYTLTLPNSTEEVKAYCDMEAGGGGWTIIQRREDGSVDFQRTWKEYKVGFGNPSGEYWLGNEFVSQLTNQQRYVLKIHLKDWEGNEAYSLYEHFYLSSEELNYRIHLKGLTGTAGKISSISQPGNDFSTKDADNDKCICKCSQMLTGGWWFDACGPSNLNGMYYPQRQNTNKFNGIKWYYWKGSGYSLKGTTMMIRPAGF
As to the kind of experiment: Biacore SPR, 37 C, n = 3, compound captured on Protein A. In general terms: SPR reads the build-up and loss of mass on a sensor chip optically.

In assay [1] the target is T2, human VEGFR2 extracellular domain (human, UniProt P35968 20-764).
T2 construct: also called hVEGFR2-ECD; human VEGFR2-ECD
Description: Biacore SPR, 37 C, n = 3, compound captured on Protein A, VEGFR2-ECD as analyte.

The target in assay [2] is T3, cyno VEGFR2 extracellular domain (cynomolgus monkey, UniProt A0A2K5VE63 20-764).
T3 construct: extracellular domain; also called cynomolgus monkey VEGFR2
The description is as above.

In assay [3] the target is T4, rabbit VEGFR2 extracellular domain (rabbit, UniProt G1SN50 20-764).
T4 construct: extracellular domain
The assay is described as above.

For assay [4], the target named is T5, dog VEGFR2 extracellular domain (dog, UniProt Q2XPT7 20-763).
T5 construct: extracellular domain
Described as above.

The next assay deals with T6, human Ang2 (human, UniProt O15123 19-496).
T6 construct: also called hAng2; human angiopoietin-2
T6 sequence: T1 sequence with G258E, V279I, L284F, V291I, A410G, G468A, G477D
As to the kind of experiment: competition ELISA: blocking of biotinylated human Ang2 binding to plate-coated human Tie2-Fc. In general terms: ELISA stands for enzyme-linked immunosorbent assay.

T4 sequence (G1SN50 entry or part of it): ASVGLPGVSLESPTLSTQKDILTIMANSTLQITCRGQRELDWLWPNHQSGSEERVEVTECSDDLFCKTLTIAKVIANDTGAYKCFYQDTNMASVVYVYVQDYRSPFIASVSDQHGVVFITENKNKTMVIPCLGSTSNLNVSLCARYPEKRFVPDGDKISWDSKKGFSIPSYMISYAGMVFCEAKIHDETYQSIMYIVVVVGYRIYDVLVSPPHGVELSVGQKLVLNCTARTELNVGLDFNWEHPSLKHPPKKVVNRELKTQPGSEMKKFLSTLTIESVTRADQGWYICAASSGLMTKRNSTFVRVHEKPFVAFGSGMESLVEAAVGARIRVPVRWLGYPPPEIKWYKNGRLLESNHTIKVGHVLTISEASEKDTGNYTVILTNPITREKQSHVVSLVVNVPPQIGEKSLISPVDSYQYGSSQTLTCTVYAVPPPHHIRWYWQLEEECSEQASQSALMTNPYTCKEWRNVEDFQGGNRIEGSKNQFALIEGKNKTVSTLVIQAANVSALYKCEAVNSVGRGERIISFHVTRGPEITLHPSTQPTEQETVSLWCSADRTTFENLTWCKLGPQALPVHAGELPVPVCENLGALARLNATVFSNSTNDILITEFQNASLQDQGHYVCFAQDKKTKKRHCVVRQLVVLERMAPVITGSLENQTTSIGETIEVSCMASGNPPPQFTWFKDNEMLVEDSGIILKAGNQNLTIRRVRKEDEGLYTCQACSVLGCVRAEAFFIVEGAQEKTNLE
T3 sequence (A0A2K5VE63 entry or part of it): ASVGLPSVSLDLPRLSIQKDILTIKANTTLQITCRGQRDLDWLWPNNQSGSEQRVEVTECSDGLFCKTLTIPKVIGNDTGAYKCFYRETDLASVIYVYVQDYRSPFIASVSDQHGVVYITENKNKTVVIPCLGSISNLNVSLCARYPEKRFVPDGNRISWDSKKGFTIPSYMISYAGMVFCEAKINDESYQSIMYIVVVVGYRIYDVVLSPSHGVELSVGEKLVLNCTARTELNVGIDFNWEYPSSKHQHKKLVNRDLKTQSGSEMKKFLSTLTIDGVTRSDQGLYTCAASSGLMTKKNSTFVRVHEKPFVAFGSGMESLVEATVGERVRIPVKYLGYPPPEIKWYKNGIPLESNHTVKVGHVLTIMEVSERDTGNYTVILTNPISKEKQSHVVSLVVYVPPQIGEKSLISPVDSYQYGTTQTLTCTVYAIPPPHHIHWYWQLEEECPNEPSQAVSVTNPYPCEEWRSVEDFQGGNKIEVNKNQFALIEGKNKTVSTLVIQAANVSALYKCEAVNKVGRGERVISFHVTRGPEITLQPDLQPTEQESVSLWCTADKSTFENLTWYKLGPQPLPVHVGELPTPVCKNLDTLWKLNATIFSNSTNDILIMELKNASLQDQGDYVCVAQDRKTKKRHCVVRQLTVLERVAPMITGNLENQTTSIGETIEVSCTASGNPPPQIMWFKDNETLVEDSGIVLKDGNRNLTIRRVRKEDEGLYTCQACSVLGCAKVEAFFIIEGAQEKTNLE
T2 sequence (P35968 20-764): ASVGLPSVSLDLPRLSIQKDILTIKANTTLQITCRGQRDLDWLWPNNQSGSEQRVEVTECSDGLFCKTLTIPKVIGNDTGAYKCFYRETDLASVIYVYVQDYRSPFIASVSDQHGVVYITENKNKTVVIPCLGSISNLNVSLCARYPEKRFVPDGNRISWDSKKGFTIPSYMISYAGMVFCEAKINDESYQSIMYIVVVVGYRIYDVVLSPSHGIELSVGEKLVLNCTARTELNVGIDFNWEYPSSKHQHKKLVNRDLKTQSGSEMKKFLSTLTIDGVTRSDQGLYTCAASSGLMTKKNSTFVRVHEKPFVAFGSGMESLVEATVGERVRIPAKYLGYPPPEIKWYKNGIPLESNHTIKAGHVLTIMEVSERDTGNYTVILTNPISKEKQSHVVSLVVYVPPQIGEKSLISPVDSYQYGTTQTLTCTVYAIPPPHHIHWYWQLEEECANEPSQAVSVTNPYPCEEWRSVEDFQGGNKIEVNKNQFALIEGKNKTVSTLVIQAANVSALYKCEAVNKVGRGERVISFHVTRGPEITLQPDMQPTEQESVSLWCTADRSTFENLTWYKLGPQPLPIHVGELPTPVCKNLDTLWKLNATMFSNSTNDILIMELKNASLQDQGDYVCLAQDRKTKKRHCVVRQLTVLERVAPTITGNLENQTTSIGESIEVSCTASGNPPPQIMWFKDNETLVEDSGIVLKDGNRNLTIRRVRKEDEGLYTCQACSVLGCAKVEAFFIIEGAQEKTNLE

B1: Compound F (bispecific antibody, human IgG4 S228P, kappa, F234A L235A)
heavy: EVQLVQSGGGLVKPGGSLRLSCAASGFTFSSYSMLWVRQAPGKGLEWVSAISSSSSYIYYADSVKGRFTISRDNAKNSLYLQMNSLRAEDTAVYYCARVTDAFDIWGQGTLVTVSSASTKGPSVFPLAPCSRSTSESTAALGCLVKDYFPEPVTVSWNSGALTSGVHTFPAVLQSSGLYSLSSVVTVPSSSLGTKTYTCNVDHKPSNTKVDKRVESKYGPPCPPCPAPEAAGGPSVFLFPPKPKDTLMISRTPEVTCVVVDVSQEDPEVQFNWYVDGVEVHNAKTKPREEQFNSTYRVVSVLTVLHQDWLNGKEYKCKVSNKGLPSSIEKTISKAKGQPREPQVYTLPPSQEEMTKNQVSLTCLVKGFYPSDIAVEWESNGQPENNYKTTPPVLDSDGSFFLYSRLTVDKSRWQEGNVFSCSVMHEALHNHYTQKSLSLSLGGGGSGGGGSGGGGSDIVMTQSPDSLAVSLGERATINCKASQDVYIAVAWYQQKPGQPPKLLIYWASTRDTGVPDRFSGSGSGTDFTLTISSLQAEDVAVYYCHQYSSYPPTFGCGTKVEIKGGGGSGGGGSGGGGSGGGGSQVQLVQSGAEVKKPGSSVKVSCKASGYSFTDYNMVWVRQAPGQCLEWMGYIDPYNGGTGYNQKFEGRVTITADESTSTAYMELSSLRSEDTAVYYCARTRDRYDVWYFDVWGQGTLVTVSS
light: DIQMTQSPSSVSASVGDRVTITCRASRGIDNWLTWYQQKPGKAPKLLIYEASSLQSGVPSRFSGSGSGTDFTLTISSLQPEDFATYYCQQAKAFPPTFGGGTKVDIKRTVAAPSVFIFPPSDEQLKSGTASVVCLLNNFYPREAKVQWKVDNALQSGNSQESVTEQDSKDSTYSLSSTLTLSKADYEKHKVYACEVTHQGLSSPVTKSFNRGEC
notes: also called Cmpd F
As a reminder, the Kd is a measure of binding affinity in units of concentration. As usually defined, the koff is the rate constant with which the complex falls apart. Read a high koff as a short-lived complex. As usually defined, the kon is the second-order rate constant of association. A lower kon goes with slower complex formation. By IC50 is commonly meant the concentration needed to halve the response being measured. High values mean a need for much substance, low ones inhibition by little substance. Consider B1, for which the Kd in the assay with cyno Ang2 was 0.3 nM; in assay [1] it was 4.6 nM; in assay [2], 3.3 nM; in assay [3], 6.1 nM; in assay [4] it was 37 nM. Moreover, the koff with cyno Ang2 is 0.00028 s⁻¹; in assay [1], 0.00012 s⁻¹; in assay [2] it was 0.00011 s⁻¹; in assay [3], 0.00023 s⁻¹; in assay [4], 0.0015 s⁻¹. The kon turned out to be 960000 M⁻¹ s⁻¹ in the assay with cyno Ang2; 25000 M⁻¹ s⁻¹ in assay [1]; 34000 M⁻¹ s⁻¹ in assay [2]; 38000 M⁻¹ s⁻¹ in assay [3]; 41000 M⁻¹ s⁻¹ in assay [4]. In the assay with human Ang2, this molecule returned an IC50 of 0.034 nM.
